Literature values in publication PMC5467299.

Experiments:
[1] = target: Plasminogen (Homo sapiens) (UniProt P00747)
tPA (Homo sapiens) = tPA (Homo sapiens) (UniProt P00750)
UniProt P00750, sequence (P00750 36-562): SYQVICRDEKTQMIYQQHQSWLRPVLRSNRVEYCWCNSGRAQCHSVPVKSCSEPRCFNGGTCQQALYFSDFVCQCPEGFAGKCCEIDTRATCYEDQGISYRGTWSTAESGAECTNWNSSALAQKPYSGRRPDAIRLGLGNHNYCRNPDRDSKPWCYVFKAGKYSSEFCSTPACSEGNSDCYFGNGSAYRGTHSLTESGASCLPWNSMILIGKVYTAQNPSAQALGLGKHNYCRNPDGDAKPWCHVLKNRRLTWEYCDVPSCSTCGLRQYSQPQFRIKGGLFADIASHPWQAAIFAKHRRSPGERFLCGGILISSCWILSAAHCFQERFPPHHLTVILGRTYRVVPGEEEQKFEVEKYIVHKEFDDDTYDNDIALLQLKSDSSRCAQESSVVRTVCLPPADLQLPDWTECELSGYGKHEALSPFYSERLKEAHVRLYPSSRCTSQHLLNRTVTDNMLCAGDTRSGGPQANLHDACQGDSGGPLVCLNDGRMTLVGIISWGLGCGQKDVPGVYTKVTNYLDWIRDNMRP

UniProt P00747, sequence (P00747 20-810): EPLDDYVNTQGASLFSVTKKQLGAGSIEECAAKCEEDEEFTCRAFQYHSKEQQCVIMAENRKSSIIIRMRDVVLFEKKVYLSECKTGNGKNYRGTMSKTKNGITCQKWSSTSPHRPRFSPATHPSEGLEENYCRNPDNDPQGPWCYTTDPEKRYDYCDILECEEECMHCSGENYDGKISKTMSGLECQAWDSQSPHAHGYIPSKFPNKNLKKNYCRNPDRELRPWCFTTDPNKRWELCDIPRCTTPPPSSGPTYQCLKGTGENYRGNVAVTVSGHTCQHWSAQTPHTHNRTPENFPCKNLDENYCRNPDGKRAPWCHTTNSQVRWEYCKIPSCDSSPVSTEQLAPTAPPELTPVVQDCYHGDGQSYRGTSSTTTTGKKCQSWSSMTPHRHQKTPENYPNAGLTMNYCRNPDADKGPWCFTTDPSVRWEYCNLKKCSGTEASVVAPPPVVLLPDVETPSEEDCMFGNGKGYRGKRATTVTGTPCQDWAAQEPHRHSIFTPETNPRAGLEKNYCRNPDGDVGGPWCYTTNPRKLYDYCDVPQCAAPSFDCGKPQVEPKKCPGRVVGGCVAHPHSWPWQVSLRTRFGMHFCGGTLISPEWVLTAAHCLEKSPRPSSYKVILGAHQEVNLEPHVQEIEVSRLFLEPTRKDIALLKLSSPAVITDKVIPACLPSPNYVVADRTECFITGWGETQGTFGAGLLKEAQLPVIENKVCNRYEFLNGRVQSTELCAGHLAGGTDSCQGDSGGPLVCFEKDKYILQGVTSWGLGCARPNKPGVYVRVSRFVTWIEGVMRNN

- Kd [1]: 1000 nM
- Kd (tPA (Homo sapiens)): 1000 nM
Substance: Fibrin alpha chain 148-160 (from UniProt P02671)
